Target: human fibrinogen (human) (UniProt P02671)
Experiment: ELISA

EC50 | Substance
63 nM | recombinant gain-of-function (GOF) A1(R1450E)A2A3 mutant of VWF (domain or fragment)
87 nM | recombinant wild-type A1A2A3 (WT) domains protein of VWF (domain or fragment)

From article PMC11232922
